Experimental findings from paper PMC6591361, “Recombinant production of human α2-macroglobulin variants and interaction studies with recombinant G-related α2-macroglobulin binding protein and latent transforming growth factor-β2” (Scientific Reports, 2019) are described below.

What all share (conditions): both partners purified
Experiment [1] concerns the target T1, native authentic human α2-macroglobulin (human, UniProt P01023 24-1474, thioester bond intact (native form)).
T1 construct: human α2-macroglobulin, UniProt P01023, 1,474-residue precursor; as secreted it lacks the signal peptide (recombinant constructs begin at S24); Tetramer (680.6 kDa by SEC-MALLS); glycosylated; also called hα2M; native hα2M; source: purified from human blood plasma of individual donors (PEG 4,000 precipitation, zinc-chelating resin, IEC, SEC)
T1 sequence (looked up): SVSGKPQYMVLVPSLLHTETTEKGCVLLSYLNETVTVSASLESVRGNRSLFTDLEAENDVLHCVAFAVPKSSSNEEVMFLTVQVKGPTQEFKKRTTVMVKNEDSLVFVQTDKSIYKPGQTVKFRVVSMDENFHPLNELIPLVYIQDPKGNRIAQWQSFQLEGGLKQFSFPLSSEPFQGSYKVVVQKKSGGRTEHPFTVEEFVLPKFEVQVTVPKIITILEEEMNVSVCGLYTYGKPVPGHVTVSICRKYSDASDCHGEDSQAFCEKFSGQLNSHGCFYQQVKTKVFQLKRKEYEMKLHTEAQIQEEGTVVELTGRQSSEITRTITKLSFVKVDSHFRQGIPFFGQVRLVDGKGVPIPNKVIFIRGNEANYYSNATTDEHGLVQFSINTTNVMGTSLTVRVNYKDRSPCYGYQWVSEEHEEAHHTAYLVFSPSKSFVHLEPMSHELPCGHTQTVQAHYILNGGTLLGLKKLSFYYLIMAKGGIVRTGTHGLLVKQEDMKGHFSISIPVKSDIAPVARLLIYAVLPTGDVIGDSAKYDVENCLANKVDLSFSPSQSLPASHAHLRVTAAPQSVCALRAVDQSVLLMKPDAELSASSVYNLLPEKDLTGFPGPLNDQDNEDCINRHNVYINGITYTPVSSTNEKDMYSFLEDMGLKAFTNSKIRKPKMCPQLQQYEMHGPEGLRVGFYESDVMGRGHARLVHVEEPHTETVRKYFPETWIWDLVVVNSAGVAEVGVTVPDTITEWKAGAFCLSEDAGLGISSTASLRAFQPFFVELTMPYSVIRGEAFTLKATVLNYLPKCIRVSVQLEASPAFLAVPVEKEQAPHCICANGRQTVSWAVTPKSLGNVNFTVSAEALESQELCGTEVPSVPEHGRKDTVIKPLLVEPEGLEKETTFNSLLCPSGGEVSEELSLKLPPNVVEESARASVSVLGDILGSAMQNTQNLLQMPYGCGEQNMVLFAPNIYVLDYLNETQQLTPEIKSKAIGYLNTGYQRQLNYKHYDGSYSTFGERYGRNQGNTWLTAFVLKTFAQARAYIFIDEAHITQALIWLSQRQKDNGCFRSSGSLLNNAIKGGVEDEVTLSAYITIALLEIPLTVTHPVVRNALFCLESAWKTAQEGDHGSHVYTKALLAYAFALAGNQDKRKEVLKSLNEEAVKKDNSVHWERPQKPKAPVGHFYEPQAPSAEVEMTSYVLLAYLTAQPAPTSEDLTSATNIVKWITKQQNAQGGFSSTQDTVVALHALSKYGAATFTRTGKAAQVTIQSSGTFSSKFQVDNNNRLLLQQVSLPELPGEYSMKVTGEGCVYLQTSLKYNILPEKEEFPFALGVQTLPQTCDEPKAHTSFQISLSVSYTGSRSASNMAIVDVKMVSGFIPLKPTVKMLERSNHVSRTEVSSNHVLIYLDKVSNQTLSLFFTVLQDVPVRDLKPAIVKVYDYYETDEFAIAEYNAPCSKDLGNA
Briefly: SPR; as a1, affinity analysis: steady-state responses (Req) against analyte concentration, 1:1 model. On the technique in general: In SPR one partner is held on a chip, and binding of the other changes the refractive index at the surface.

For experiment [2], the target named is T2, methylamine-induced authentic human α2-macroglobulin (human, UniProt P01023 24-1474, thioester bond opened by methylamine, producing a free cysteine).
T2 construct: human α2-macroglobulin, UniProt P01023; plasma protein as m1, induced form; Tetramer (684.1 kDa by SEC-MALLS); also called induced hα2M; induced authentic hα2M
T2 sequence (looked up): T1 sequence (looked up)
The experiment is described as above.

Experiment [3] concerns the target T1, native authentic human α2-macroglobulin. The experiment in a line: SPR; Strep-tagged GRAB (9.7 nM) captured on Streptactin XT on a CM5 chip; analytes injected in multicycle runs (4–600 nM authentic hα2M, 75–1,200 nM N-hα2M and C-hα2M); HBNS (10 mM HEPES, 150 mM sodium chloride, pH 7.4), 37 °C; kinetic fit, 1:1 Langmuir model.
Experiment [4] shares this target. The experiment in a line: SEC-MALS; SEC-MALLS, Superose 6 10/300, buffer J (20 mM sodium phosphate, 150 mM sodium chloride, pH 7.4), 25 °C; GRAB to authentic hα2M at a molar ratio of 4:1; triplicate.
Experiment [5] concerns the target T2, methylamine-induced authentic human …. The experiment is described as above.

B1: Strep-tagged G-related α2M-binding protein (GRAB), V34-N181 (domain or fragment)
chain: GAMVDSPIEQPRIIPNGGTLTNLLGNAPEKLALRNEERAIDELKKQAIEDKEATTAIEAASSDALEALADQTDALQSEEAAVVKADNAASDALEALADQTDALQSEEAEVVQSDNAASDAWEKAATPIALDVKKTKDTKPVVKKEERQNVN
notes: residues left at the N-terminus after TEV cleavage, from the cloning strategy; also called Strep-tagged GRAB; pCri-H6-TEV-GRAB-STREP; source: E. coli BL21 (DE3), purified (Streptactin XT, IEC, SEC); not shown: His6, N-terminal, cleaved; Strep-tag, C-terminal, kept
In turn, B1 gave a Kd in experiment [1] of 34.5 nM. Further, in experiment [2], the affinity, expressed as Kd, was 94.6 nM. Moreover, in experiment [3], binding was put at a Kd of 14.3 nM, the koff was 0.0019 s⁻¹ and the kon was found to be 132000 M⁻¹ s⁻¹.

B2: G-related α2M-binding protein (GRAB), V34-N181, untagged (domain or fragment)
chain: B1 chain
notes: residues left at the N-terminus after TEV cleavage, from the cloning strategy; the theoretical mass of 15.8 kDa that it compares with fits the untagged form (surmise); also called pCri-H6-TEV-GRAB; source: E. coli BL21 (DE3), purified (Ni-NTA, TEV cleavage, reverse Ni-NTA, IEC, SEC); not shown: His6, N-terminal, cleaved
With B2, the “stoichiometry N” value in experiment [4] turned out to be 1.7 GRAB per hα2M tetramer; in experiment [5], 2 GRAB per hα2M tetramer.

One may read the Kd as the constant that tells how readily two partners part at equilibrium. Usually koff stands for the rate constant with which the complex falls apart. A word on the kon: it is the rate constant with which the complex forms. A higher kon goes with faster complex formation. By stoichiometry N is commonly meant the number of molecules, sites or subunits per partner or assembly.
